Substitutions are numbered along the chain they refer to. “And” between values parts separate entries of the source, which are not always exact repeats. Equal entries are not always repeated.
Experiments:
[1] = target: the molecule itself; assay: native gel or EMSA; DnaA preincubated with 3 uM ATP, then 30°C for 5 min in buffer G (20 mM HEPES–KOH pH 7.6, 80 mM KCl, 1 mM EDTA, 4 mM DTT, 5 mM magnesium acetate, 0.1 mg/ml BSA, 10% glycerol) with 35 nM 52-bp DARS2 FBS2–5 DNA and competitor λ-DNA; 7% polyacrylamide gel; oligomers counted as DnaA molecules on the DNA fragment (C1–C4)
[2] = target: Fis (Escherichia coli, UniProt P0A6R3 1-98); assay: EMSA; C1 at 100-200 nM Fis, C2 at >=360 nM; EMSA: 20 mM HEPES-KOH pH 7.6, 80 mM KCl, 1 mM EDTA, 4 mM DTT, 5 mM Mg acetate, 0.1 mg/ml BSA, 10% glycerol, 3 uM ATP or ADP, lambda-DNA competitor, 35 nM DNA, 30 C 5 min; pull-down in same buffer with 400 nM FBS1 competitor, preincubations on ice; conditions: protein: recombinant; chain copies: 2; blunt
[3] = target: T1, DnaA (Escherichia coli, UniProt P03004 1-467); assay: EMSA; ATP; oligomers, trimer C3 a major form at >=480 nM DnaA; EMSA: 20 mM HEPES-KOH pH 7.6, 80 mM KCl, 1 mM EDTA, 4 mM DTT, 5 mM Mg acetate, 0.1 mg/ml BSA, 10% glycerol, 3 uM ATP or ADP, lambda-DNA competitor, 35 nM DNA, 30 C 5 min; pull-down in same buffer with 400 nM FBS1 competitor, preincubations on ice; conditions: protein: recombinant; blunt
T1 sequence: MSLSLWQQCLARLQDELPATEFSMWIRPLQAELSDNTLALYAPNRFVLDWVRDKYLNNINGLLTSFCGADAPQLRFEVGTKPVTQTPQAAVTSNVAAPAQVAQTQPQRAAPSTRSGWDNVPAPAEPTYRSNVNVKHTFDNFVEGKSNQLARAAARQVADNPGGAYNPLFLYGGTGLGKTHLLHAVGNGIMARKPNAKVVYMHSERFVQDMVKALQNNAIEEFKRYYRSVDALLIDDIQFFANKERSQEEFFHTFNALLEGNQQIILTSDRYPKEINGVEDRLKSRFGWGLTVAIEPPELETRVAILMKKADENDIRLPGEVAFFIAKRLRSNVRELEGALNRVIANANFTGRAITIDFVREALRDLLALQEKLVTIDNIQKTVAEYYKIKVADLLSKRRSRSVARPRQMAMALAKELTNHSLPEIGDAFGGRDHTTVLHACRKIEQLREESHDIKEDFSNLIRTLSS

[4] = target: DnaA;Fis (Escherichia coli;Escherichia coli, UniProt P03004;P0A6R3 1-467;1-98, |); assay: EMSA; ADP; DnaA and Fis bind independently; EMSA: 20 mM HEPES-KOH pH 7.6, 80 mM KCl, 1 mM EDTA, 4 mM DTT, 5 mM Mg acetate, 0.1 mg/ml BSA, 10% glycerol, 3 uM ATP or ADP, lambda-DNA competitor, 35 nM DNA, 30 C 5 min; pull-down in same buffer with 400 nM FBS1 competitor, preincubations on ice; conditions: protein: recombinant;recombinant; tags: ;; copies: 1;2; blunt
[5] = target: T1, DnaA; assay: EMSA; ADP; monomer to trimer complexes at suboptimal DnaA; EMSA: 20 mM HEPES-KOH pH 7.6, 80 mM KCl, 1 mM EDTA, 4 mM DTT, 5 mM Mg acetate, 0.1 mg/ml BSA, 10% glycerol, 3 uM ATP or ADP, lambda-DNA competitor, 35 nM DNA, 30 C 5 min; pull-down in same buffer with 400 nM FBS1 competitor, preincubations on ice; conditions: protein: recombinant; blunt
[6] = target: T1, DnaA; assay: EMSA; ATP; binding inhibited completely; EMSA: 20 mM HEPES-KOH pH 7.6, 80 mM KCl, 1 mM EDTA, 4 mM DTT, 5 mM Mg acetate, 0.1 mg/ml BSA, 10% glycerol, 3 uM ATP or ADP, lambda-DNA competitor, 35 nM DNA, 30 C 5 min; pull-down in same buffer with 400 nM FBS1 competitor, preincubations on ice; conditions: protein: recombinant; blunt
[7] = target: T1, DnaA; assay: EMSA; ATP; trimer formation not considerably inhibited; EMSA: 20 mM HEPES-KOH pH 7.6, 80 mM KCl, 1 mM EDTA, 4 mM DTT, 5 mM Mg acetate, 0.1 mg/ml BSA, 10% glycerol, 3 uM ATP or ADP, lambda-DNA competitor, 35 nM DNA, 30 C 5 min; pull-down in same buffer with 400 nM FBS1 competitor, preincubations on ice; conditions: protein: recombinant; blunt

DnaA;Fis, sequence (P0A6R3 whole entry, one chain of several): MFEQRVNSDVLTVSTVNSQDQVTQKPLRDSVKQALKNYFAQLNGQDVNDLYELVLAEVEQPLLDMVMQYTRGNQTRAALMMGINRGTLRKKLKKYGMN
Fis, sequence (P0A6R3 whole entry): as the sequence (P0A6R3 whole entry, one chain of several) above

B1: DnaA (replication initiator protein of Escherichia coli) (natural protein, UniProt P03004 1-467, looked up)
chain: T1 sequence
notes: DnaA, chromosomal replication initiator protein, Escherichia coli; four domains, Arg finger Arg285 in domain III; Preincubated with 3 uM ATP (ATP–DnaA) or ADP (ADP–DnaA) before the EMSA; The nucleotide state is told by the assay, not by a separate molecule; also called ATP–DnaA; ADP–DnaA; source: purified protein
With B1 the “stoichiometry N” value [1] was 3 and 4.

B2: FBS2-5 WT (dsDNA)
DNA 1: GGGTTGGCGAAAGATCAACCAATGCCGTATTTATCCACAGAATGTGCCACTA
DNA 2: TAGTGGCACATTCTGTGGATAAATACGGCATTGGTTGATCTTTCGCCAACCC
B2: binds [2]; binds [3]; binds [4].

B3: oriC R5MI2 R14 (dsDNA)
DNA 1: TCATTACCTGTGGATAACCTGTGGATAACCTGTGGATAACCTGTGGATAAAATGA
DNA 2: TCATTTTATCCACAGGTTATCCACAGGTTATCCACAGGTTATCCACAGGTAATGA
B3: binds [5].

B4: FBS2-5 subDnaA box V (dsDNA)
DNA 1: B2 DNA 1 with T31A, T32C, T34G, C35G, A39T
DNA 2: B2 DNA 2 with T14A, G18C, A19C, A21G, A22T
B4: no binding [6].

B5: FBS2-5 subDnaA box V-c (dsDNA)
DNA 1: B2 DNA 1 with A10G, A11G, A12G, A14G, T15C, A17G
DNA 2: B2 DNA 2 with T36C, A38G, T39C, T41C, T42C, T43C
B5: binds [7].

From PMC8682772, “Negative feedback for DARS2–Fis complex by ATP–DnaA supports the cell cycle-coordinated regulation for chromosome replication” (Nucleic Acids Research, 2021)
